In series [1] the test system is HeLa Kyoto. Kind of series: solubility change mitosis vs G1/S (difference of NP-40 vs SDS log2 ratios) (log2 ratio difference); higher = more soluble in mitosis.
For series [2], the system named is HeLa Kyoto. In words: solubility in G1/S (NP-40 vs SDS abundance) (log2 ratio); higher = more soluble. Conditions: cell cycle stage: G1/S.
The subject of series [3] is HeLa Kyoto. Kind of series: thermal stability score vs G1/S (z-score of summed log2 fold changes over temperatures); higher = more thermally stable than in G1/S.
For series [4], the system named is HeLa Kyoto. Kind of series: melting temperature (median over replicates), in situ; higher = more thermally stable.
Where [5] appears, read: cell cycle stage: early G1 (4.5 h after nocodazole release).

Data on 7 substances can be found in the supplement of paper PMC5998384.
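Throughout, for melting temperature (median over replicates), in situ: HeLa Kyoto cells synchronized by double thymidine or nocodazole block, proteins quantified by TMT10plex mass spectrometry, three independent biological replicates.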
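Throughout, for solubility change mitosis vs G1/S (difference of NP-40 vs SDS log2 ratios): synchronized HeLa Kyoto cells (double thymidine block for G1/S, nocodazole release for mitosis), protein amounts in NP-40 versus SDS lysates quantified by mass spectrometry, three biological replicates.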
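Throughout, for solubility in G1/S (NP-40 vs SDS abundance): HeLa Kyoto cells arrested at G1/S by double thymidine block, proteins quantified by TMT10plex mass spectrometry in mild NP-40 versus SDS extracts, three biological replicates.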
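Throughout, for thermal stability score vs G1/S (z-score of summed log2 fold changes over temperatures): synchronized HeLa Kyoto cells, proteins quantified by TMT10plex mass spectrometry, three biological replicates, mitosis taken 0.5 h after nocodazole release, G1/S directly after double thymidine block.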

ANKH, sequence (chain, as listed by the source): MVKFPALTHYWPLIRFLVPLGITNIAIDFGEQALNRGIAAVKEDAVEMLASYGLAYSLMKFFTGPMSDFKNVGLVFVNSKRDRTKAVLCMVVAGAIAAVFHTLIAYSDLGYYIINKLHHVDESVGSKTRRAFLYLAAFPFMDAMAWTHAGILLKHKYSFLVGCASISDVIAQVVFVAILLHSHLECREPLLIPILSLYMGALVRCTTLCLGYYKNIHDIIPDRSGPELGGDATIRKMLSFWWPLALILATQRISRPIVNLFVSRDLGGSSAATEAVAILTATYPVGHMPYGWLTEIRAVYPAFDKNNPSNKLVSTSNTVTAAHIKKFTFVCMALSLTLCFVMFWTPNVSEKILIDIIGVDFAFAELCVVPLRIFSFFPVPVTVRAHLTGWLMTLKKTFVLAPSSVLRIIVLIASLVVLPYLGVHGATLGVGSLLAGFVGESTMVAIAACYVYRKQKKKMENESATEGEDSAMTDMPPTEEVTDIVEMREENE

Take “MAASTGYVRLWGAARCWVLRRPMLAAAGGRVPTAAGAWLLRGQRTCDASPPWALWGRGPAIGGQWRGFWEASSRGGGAFSGGEDASEGGAEEGAGGAGGSAGAGEGPVITALTPMTIPDVFPHLPLIAITRNPVFPRFIKIIEVKNKKLVELLRRKVRLAQPYVGVFLKRDDSNESDVVESLDEIYHTGTFAQIHEMQDLGDKLRMIVMGHRRVHISRQLEVEPEEPEAENKHKPRRKSKRGKKEAEDELSARHPAELAMEPTPELPAEVLMVEVENVVHEDFQVTEEVKALTAEIVKTIRDIIALNPLYRESVLQMMQAGQRVVDNPIYLSDMGAALTGAESHELQDVLEETNIPKRLYKALSLLKKEFELSKLQQRLGREVEEKIKQTHRKYLLQEQLKIIKKELGLEKDDKDAIEEKFRERLKELVVPKHVMDVVDEELSKLGLLDNHSSEFNVTRNYLDWLTSIPWGKYSNENLDLARAQAVLEEDHYGMEDVKKRILEFIAVSQLRGSTQGKILCFYGPPGVGKTSIARSIARALNREYFRFSVGGMTDVAEIKGHRRTYVGAMPGKIIQCLKKTKTENPLILIDEVDKIGRGYQGDPSSALLELLDPEQNANFLDHYLDVPVDLSKVLFICTANVTDTIPEPLRDRMEMINVSGYVAQEKLAIAERYLVPQARALCGLDESKAKLSSDVLTLLIKQYCRESGVRNLQKQVEKVLRKSAYKIVSGEAESVEVTPENLQDFVGKPVFTVERMYDVTPPGVVMGLAWTAMGGSTLFVETSLRRPQDKDAKGDKDGSLEVTGQLGEVMKESARIAYTFARAFLMQHAPANDYLVTSHIHLHVPEGATPKDGPSAGCTIVTALLSLAMGRPVRQNLAMTGEVSLTGKILPVGGIKEKTIAAKRAGVTCIVLPAENKKDFYDLAAFITEGLEVHFVEHYREIFDIAFPDEQAEALAVER [LONP1]”: the “solubility change mitosis (log2)” value in the series on HeLa Kyoto [1] was -0.0806. For the same substance, the “solubility in G1/S (log2)” value in the series on HeLa Kyoto [2] came to 0.12. For the same substance, the values for the thermal stability score with HeLa Kyoto [3] (setting [5]) and in the series on HeLa Kyoto [3] (cell cycle stage: mitosis) were -0.58 and -1.35, respectively. Also, the melting temperature with HeLa Kyoto [4] (cell cycle stage: G1/S) was determined as 54.4 °C; in the series on HeLa Kyoto [4] (cell cycle stage: mitosis) it was 53.6 °C.

On to “MDQCVTVERELEKVLHKFSGYGQLCERGLEELIDYTGGLKHEILQSHGQDAELSGTLSLVLTQCCKRIKDTVQKLASDHKDIHSSVSRVGKAIDKNFDSDISSVGIDGCWQADSQRLLNEVMVEHFFRQGMLDVAEELCQESGLSVDPSQKEPFVELNRILEALKVRVLRPALEWAVSNREMLIAQNSSLEFKLHRLYFISLLMGGTTNQREALQYAKNFQPFALNHQKDIQVLMGSLVYLRQGIENSPYVHLLDANQWADICDIFTRDACALLGLSVESPLSVSFSAGCVALPALINIKAVIEQRQCTGVWNQKDELPIEVDLGKKCWYHSIFACPILRQQTTDNNPPMKLVCGHIISRDALNKMFNGSKLKCPYCPMEQSPGDAKQIFF [RMND5A]”, for which the “solubility change mitosis (log2)” value in the series with HeLa Kyoto [1] is -0.047. Also, in the series on HeLa Kyoto [2], the “solubility in G1/S (log2)” value was determined as 0.298. Also, the thermal stability score turned out to be 0.294 in the series with HeLa Kyoto [3] (setting [5]) and 0.672 with HeLa Kyoto [3] (cell cycle stage: mitosis). This substance also showed a melting temperature with HeLa Kyoto [4] (cell cycle stage: G1/S) of 51.1 °C.

With ANKH, the “solubility change mitosis (log2)” value in the series on HeLa Kyoto [1] amounted to 0.155. Besides, the “solubility in G1/S (log2)” value in the series on HeLa Kyoto [2] is -0.292. Moreover, the thermal stability score is -1.21 with HeLa Kyoto [3] (setting [5]) and -1.75 in the series on HeLa Kyoto [3] (cell cycle stage: mitosis). Besides, the melting temperature in the series on HeLa Kyoto [4] (cell cycle stage: G1/S) came to 54.9 °C; in the series with HeLa Kyoto [4] (cell cycle stage: mitosis), 58.2 °C.

MYCBP2: in the series with HeLa Kyoto [1], the “solubility change mitosis (log2)” value turned out to be 0.0594. Also, the “solubility in G1/S (log2)” value in the series with HeLa Kyoto [2] is -0.39. Also, the thermal stability score is -0.686 in the series on HeLa Kyoto [3] (setting [5]) and -0.306 in the series on HeLa Kyoto [3] (cell cycle stage: mitosis). Besides, the melting temperature was found to be 51.4 °C in the series on HeLa Kyoto [4] (cell cycle stage: G1/S) and 50.8 °C with HeLa Kyoto [4] (cell cycle stage: mitosis).

As to “MAQRHSDSSLEEKLLGHRFHSELRLDAGGNPASGLPMVRGSPRVRDDAAFQPQVPAPPQPRPPGHEEPWPIVLSTESPAALKLGTQQLIPKSLAVASKAKTPARHQSFGAAVLSREAARRDPKLLPAPSFSLDDMDVDKDPGGMLRRNLRNQSYRAAMKGLGKPGGQGDAIQLSPKLQALAEEPSQPHTRSPAKNKKTLGRKRGHKGSFKDDPQLYQEIQERGLNTSQESDDDILDESSSPEGTQKVDATIVVKSYRPAQVTWSQLPEVVELGILDQLSTEERKRQEAMFEILTSEFSYQHSLSILVEEFLQSKELRATVTQMEHHHLFSNILDVLGASQRFFEDLEQRHKAQVLVEDISDILEEHAEKHFHPYIAYCSNEVYQQRTLQKLISSNAAFREALREIERRPACGGLPMLSFLILPMQRVTRLPLLMDTLCLKTQGHSERYKAASRALKAISKLVRQCNEGAHRMERMEQMYTLHTQLDFSKVKSLPLISASRWLLKRGELFLVEETGLFRKIASRPTCYLFLFNDVLVVTKKKSEESYMVQDYAQMNHIQVEKIEPSELPLPGGGNRSSSVPHPFQVTLLRNSEGRQEQLLLSSDSASDRARWIVALTHSERQWQGLSSKGDLPQVEITKAFFAKQADEVTLQQADVVLVLQQEDGWLYGERLRDGETGWFPEDFARFITSRVAVEGNVRRMERLRVETDV [ARHGEF16]”, the “solubility change mitosis (log2)” value with HeLa Kyoto [1] was -0.0697. Further, the “solubility in G1/S (log2)” value in the series on HeLa Kyoto [2] is -0.0605. The thermal stability score in the series on HeLa Kyoto [3] (setting [5]) turned out to be 0.0138; in the series with HeLa Kyoto [3] (cell cycle stage: mitosis), 0.41. Besides, the melting temperature stood at 49.4 °C in the series with HeLa Kyoto [4] (cell cycle stage: G1/S) and 49.5 °C with HeLa Kyoto [4] (cell cycle stage: mitosis).

In the case of PHF5A, in the series with HeLa Kyoto [1], the “solubility change mitosis (log2)” value is 0.276. Further, the “solubility in G1/S (log2)” value with HeLa Kyoto [2] was -0.51. In addition, the thermal stability score in the series on HeLa Kyoto [3] (setting [5]) is -3.94; with HeLa Kyoto [3] (cell cycle stage: mitosis), -5.73. Also, the melting temperature with HeLa Kyoto [4] (cell cycle stage: G1/S) amounted to 53.8 °C; in the series with HeLa Kyoto [4] (cell cycle stage: mitosis), 52.2 °C.

For the substance GCC2, the “solubility change mitosis (log2)” value with HeLa Kyoto [1] was -0.00143. Besides, the “solubility in G1/S (log2)” value in the series with HeLa Kyoto [2] stood at 0.461. Moreover, the thermal stability score in the series on HeLa Kyoto [3] (setting [5]) was found to be 0.337; in the series on HeLa Kyoto [3] (cell cycle stage: mitosis), 1.48. In addition, the melting temperature in the series on HeLa Kyoto [4] (cell cycle stage: G1/S) stood at 48.9 °C; in the series on HeLa Kyoto [4] (cell cycle stage: mitosis) it was 49.4 °C.
